Three molecules from US20140193915, “COMPOSITIONS AND METHODS FOR CUSTOM SITE-SPECIFIC DNA RECOMBINASES” (Monsanto Technology, LLC, published 2014) can be followed below.

Data set [1] concerns the target T1, sN-TALER IV-1 (GinH106Y-TALE13) (synthetic).
T1 chain: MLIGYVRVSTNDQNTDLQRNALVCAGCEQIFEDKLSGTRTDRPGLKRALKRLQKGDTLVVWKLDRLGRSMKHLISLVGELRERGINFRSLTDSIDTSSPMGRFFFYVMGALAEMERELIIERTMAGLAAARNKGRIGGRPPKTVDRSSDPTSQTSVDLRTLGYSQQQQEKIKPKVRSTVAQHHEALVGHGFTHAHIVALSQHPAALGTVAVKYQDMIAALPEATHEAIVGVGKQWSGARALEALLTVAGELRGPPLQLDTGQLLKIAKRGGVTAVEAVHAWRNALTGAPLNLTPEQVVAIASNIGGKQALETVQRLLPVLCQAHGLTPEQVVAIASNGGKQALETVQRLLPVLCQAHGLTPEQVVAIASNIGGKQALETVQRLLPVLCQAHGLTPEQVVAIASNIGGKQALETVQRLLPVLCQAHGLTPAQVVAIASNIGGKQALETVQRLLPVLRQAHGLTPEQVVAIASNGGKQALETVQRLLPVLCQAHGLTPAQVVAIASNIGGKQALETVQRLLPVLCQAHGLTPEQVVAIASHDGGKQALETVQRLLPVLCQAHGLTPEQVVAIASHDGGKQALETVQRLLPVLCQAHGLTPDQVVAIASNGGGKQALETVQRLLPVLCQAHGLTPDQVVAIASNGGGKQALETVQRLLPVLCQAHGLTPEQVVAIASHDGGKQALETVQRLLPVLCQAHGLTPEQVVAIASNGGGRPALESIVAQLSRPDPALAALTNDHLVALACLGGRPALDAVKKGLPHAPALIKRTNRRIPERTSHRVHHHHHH
As to the kind of experiment: cell_activity; E. coli; sequenced. The conditions noted are these: tags: 6-His; chain copies: 2 per site, tetramer in synapsis (stated). How it is done:
To test for recombination, E. coli DH5alpha cells were co-transformed with different combinations of TALER expression construct and TALER reporter construct pairs (Tables 6 and 7). The N-TALER expression and reporter constructs were in an approximate 1:1 mass ratio during the transformation. The co-transformed bacteria were plated on media with chloramphenicol, kanamycin, and X-gal then incubated at 37° C. for 18 to 36 hours. Control samples consisted of transformations using the reporter construct alone. Control transformants were similarly plated. The bacterial transformation protocol was either heat shock or electroporation per standard molecular biology techniques.
PCR was used to confirm that the predicted recombination had occurred in colonies which were white or sectored. PCR primers were designed so that a PCR product of approximately 877 bp (depending on the length of the spacers) would be produced from the non-recombined reporter constructs, and a PCR product of approximately 470 bp would be produced from reporter constructs that had undergone N-TALER-mediated recombination. Standard colony PCR was performed on white, blue, and sectored colonies from several plates representing different pairs of N-TALER expression construct and reporter construct co-transformation combinations.
To confirm that the recombination occurred as predicted, several of the PCR products were sequenced. Sequencing results for PCR products generated from white colonies from the sN-TALER IV-1 and Gin18TALE+1; sN-TALER IV-1 and Gin20TALE+0; or sN-TALER IV-1 and Gin20TALE+10 reporter constructs are shown in FIG. 7. No mismatches were detected relative to the predicted recombinase core sequence in any of the PCR products sequenced thereby confirming a base-perfect recombination with N-TALERs (the few single-nucleotide mismatches detected in the sN-TALER IV-1 and Gin20TALE+0 combination were rechecked and consequently dismissed as sequencing error).

The target in data set [2] is T2, pN-TALER IV-1-EE2 (GinL7C7-EE2-TALE13) (synthetic).
T2 chain: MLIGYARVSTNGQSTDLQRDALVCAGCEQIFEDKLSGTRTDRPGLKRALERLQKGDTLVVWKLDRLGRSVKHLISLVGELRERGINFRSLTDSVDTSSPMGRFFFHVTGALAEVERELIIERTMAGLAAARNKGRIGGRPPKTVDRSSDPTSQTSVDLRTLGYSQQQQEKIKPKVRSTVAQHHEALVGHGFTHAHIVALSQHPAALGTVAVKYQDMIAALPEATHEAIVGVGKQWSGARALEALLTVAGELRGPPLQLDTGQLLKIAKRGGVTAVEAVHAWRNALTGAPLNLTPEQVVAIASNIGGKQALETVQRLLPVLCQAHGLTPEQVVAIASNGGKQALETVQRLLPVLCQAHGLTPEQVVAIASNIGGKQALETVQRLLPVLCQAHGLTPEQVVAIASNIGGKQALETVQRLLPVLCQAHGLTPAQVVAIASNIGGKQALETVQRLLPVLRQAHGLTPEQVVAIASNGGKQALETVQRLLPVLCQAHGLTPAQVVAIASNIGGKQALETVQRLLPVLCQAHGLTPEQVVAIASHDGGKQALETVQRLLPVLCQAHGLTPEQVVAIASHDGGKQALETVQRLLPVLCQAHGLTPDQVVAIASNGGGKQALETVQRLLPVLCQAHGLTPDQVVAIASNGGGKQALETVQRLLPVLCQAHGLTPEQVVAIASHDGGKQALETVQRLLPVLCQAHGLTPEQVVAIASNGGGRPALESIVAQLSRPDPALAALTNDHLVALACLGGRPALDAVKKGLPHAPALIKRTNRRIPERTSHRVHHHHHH
As to the kind of experiment: cell_activity; E. coli. The note with it: tags: 6-His.

B1: Gin18TALE+1 (dsDNA)
DNA 1: AGAAGGTATTTATATCCAAAACCATGGTTTACAATATAAATACCTTCT
DNA 2: AGAAGGTATTTATATTGTAAACCATGGTTTTGGATATAAATACCTTCT
Turning to B1, the activity in data set [1] and in data set [2] was 1 score in each case.

B2: Gin20TALE+0 (dsDNA)
DNA 1: AGAAGGTATTTATATCCAAAACCATGGTTTACAGTATAAATACCTTCT
DNA 2: AGAAGGTATTTATACTGTAAACCATGGTTTTGGATATAAATACCTTCT
With B2, the activity in data set [1] and in data set [2] was 1 score in each case.

B3: Gin18TALE+0 (dsDNA)
DNA 1: AGAAGGTATTTATACCAAAACCATGGTTTACATATAAATACCTTCT
DNA 2: AGAAGGTATTTATATGTAAACCATGGTTTTGGTATAAATACCTTCT
As for B3, in data set [2], the activity was 1 score.
